The values that follow come from publication PMC13035853, “Mechanism of beta-arrestin 1 mediated Src activation via Src SH3 domain revealed by cryo-electron microscopy” (Nature Communications, 2026).

For this test, the target named is SH3 domain of Src (residues 83-141), wild type, with C-terminal FLAG-tag (chicken, UniProt P00523 83-141). Put plainly: bimane fluorescence; as a10, for the pair of SH3 (250 nM) and βarr1 V70C-mBr (20 nM), both purified; read-out is the loss of the V2R-induced rise of bimane fluorescence. The following applies: both partners purified.

B1: βarr1-MC-393 V70C labeled with monobromobimane (natural protein, rat, UniProt P29066 1-393, looked up)
chain: MGDKGTRVFKKASPNGKLTVYLGKRDFVDHIDLVDPVDGVVLVDPEYLKERRVYVTLTAAFRYGREDLDCLGLTFRKDLFVANVQSFPPAPEDKKPLTRLQERLIKKLGEHAYPFTFEIPPNLPSSVTLQPGPEDTGKAIGVDYEVKAFVAENLEEKIHKRNSVRLVIRKVQYAPERPGPQPTAETTRQFLMSDKPLHLEASLDKEIYYHGEPISVNVHVTNNTNKTVKKIKISVRQYADIVLFNTAQYKVPVAMEEADDTVAPSSTFSKVYTLTPFLANNREKRGLALDGKLKHEDTNLASSTLLREGANREILGIIVSYKVKVKLVVSRGGLLGDLASSDVAVELPFTLMHPKPKEEPPHREVPESETPVDTNLIELDTNDDDIVFEDFAR
modifications: bimane (mBr) on C70 of the finger loop
notes: beta-arrestin 1, rat, minimal cysteine and truncated variant (MC-393) with V70C; also called βarr1 V70C-mBr; βarr1 finger loop bimane; source: E. coli BL21 derivative, purified; labeled with monobromobimane, free label removed by SEC
For the molecule B1, the binding result is “binds”.
